This note sets out measurements from article PMC6420155.

Changes are numbered by the printed parent chain. Numbers in names are those of the source.

First the molecules themselves.
B1: Venus-tagged arrestin-3 A87V base mutant, P32120 K313A (protein)
chain: MGEKPGTRVFKKSSPNCKLTVYLGKRDFVDHLDKVDPVDGVVLVDPDYLKDRKVFVTLTCAFRYGREDLDVLGLSFRKDLFIANYQVFPPTPNPPRPPTRLQERLLRKLGQHAHPFFFTIPQNLPCSVTLQPGPEDTGKACGVDFEIRAFCAKSLEEKSHKRNSVRLVIRKVQFAPEKPGPQPSAETTRHFLMSDRSLHLEASLDKELYYHGEPLNVNVHVTNNSTKTVKKIKVSVRQYADICLFSTAQYKCPVAQVEQDDQVSPSSTFCKVYTITPLLSNNREKRGLALDGKLKHEDTNLASSTIVKEGANAEVLGILVSYRVKVKLVVSRGGDVSVELPFVLMHPKPHDHIALPRPQSAA
B2: Venus-tagged arrestin-3 A87V base mutant, P32120 E157A (protein)
chain: B1 chain with E157A, A313K
B3: Venus-tagged arrestin-3 A87V base mutant, P32120 G65P (protein)
chain: B1 chain with G65P, A313K
B4: Venus-tagged arrestin-3 A87V base mutant, P32120 F245A (protein)
chain: B1 chain with F245A, A313K
B5: Venus-tagged arrestin-3 A87V base mutant, P32120 G65del (protein)
chain: MGEKPGTRVFKKSSPNCKLTVYLGKRDFVDHLDKVDPVDGVVLVDPDYLKDRKVFVTLTCAFRYREDLDVLGLSFRKDLFIANYQVFPPTPNPPRPPTRLQERLLRKLGQHAHPFFFTIPQNLPCSVTLQPGPEDTGKACGVDFEIRAFCAKSLEEKSHKRNSVRLVIRKVQFAPEKPGPQPSAETTRHFLMSDRSLHLEASLDKELYYHGEPLNVNVHVTNNSTKTVKKIKVSVRQYADICLFSTAQYKCPVAQVEQDDQVSPSSTFCKVYTITPLLSNNREKRGLALDGKLKHEDTNLASSTIVKEGANKEVLGILVSYRVKVKLVVSRGGDVSVELPFVLMHPKPHDHIALPRPQSAA

For the first assay, the target named is T1, M2 muscarinic acetylcholine receptor, C-terminally tagged with Renilla luciferase variant 8, P08172.
T1 chain: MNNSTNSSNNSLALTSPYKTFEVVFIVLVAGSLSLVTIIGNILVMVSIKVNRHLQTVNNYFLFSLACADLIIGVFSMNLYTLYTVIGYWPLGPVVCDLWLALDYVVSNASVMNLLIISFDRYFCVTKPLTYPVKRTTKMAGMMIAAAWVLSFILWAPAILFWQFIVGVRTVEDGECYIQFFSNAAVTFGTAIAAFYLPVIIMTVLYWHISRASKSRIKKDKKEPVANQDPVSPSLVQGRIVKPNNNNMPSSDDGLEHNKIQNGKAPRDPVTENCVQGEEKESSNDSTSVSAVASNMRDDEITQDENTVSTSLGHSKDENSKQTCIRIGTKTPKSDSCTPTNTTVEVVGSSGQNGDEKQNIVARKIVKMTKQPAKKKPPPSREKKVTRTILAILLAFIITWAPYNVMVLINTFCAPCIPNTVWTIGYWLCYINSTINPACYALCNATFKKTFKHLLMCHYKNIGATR
The assay can be described thus: BRET. The following applies: chain shown with the change; HEK293 arrestin 2/3 KO cells; agonist-induced minus basal BRET; average at 10 and 15 min; parent: est. 0.029; read off a plot. (In general: BRET reads energy transfer from a luciferase to a nearby fluorophore.)
For the molecule B1, the response was found to be 0.032.

As to B2, the response was 0.026.

For the molecule B3, the response came out at 0.023.

Regarding B4, the response is 0.031.

Take B5: the response was 0.019.

A further assay concerns the target T2, dopamine D1 receptor, C-terminally tagged with Renilla luciferase variant 8, P21728.
T2 chain: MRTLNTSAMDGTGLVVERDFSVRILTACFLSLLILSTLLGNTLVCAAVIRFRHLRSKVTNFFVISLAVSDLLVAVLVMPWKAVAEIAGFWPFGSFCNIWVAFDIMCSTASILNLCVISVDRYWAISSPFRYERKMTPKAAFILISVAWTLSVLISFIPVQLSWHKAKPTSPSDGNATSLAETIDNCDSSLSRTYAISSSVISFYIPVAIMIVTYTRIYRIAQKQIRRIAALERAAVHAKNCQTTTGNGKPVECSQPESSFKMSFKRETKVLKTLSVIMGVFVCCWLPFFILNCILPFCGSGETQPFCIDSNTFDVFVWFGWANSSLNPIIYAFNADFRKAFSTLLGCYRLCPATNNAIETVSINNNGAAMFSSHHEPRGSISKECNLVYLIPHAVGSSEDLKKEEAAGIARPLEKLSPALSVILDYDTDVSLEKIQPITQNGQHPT
Nature of the assay: BRET. The conditions noted are these: chain shown with the change; HEK293 arrestin 2/3 KO cells; agonist-induced minus basal BRET; average at 10 and 15 min; parent: est. 0.032; read off a plot.
As for B1, the response amounted to 0.033.

In the case of B2, the response amounted to 0.042.

For the molecule B3, the response was 0.033.

As to B4, the response worked out at 0.042.

Regarding B5, the response turned out to be 0.019.

In another assay the target is T3, dopamine D2 receptor (long isoform), C-terminally tagged with Renilla luciferase variant 8, P14416.
T3 chain: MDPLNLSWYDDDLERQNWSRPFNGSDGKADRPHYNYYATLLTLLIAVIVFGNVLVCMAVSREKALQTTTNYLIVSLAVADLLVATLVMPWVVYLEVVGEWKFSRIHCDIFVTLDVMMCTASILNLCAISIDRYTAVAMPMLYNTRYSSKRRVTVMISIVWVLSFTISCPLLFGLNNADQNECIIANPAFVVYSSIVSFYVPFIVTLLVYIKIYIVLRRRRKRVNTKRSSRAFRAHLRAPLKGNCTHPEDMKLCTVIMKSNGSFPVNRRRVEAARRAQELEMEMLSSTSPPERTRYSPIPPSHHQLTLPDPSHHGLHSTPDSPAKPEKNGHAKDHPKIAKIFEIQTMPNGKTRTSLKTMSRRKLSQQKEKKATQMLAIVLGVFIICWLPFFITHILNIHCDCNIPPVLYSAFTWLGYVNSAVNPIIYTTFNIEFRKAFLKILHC
The assay can be described thus: BRET. The conditions noted are these: chain shown with the change; HEK293 arrestin 2/3 KO cells; agonist-induced minus basal BRET; average at 10 and 15 min; parent: est. 0.023; read off a plot.
Consider B1, for which the response amounted to 0.025.

Take B2: the response was 0.023.

In the case of B3, the response was determined as 0.019.

With B4, the response amounted to 0.027.

The next assay addresses dopamine D2 receptor (long isoform), C-terminally tagged with Renilla luciferase variant 8 (human) (UniProt P14416). The assay can be described thus: FRET or BRET; in-cell BRET in HEK293 arrestin-2/3 KO cells co-transfected with Venus-arrestin-3 (acceptor) and receptor-RLuc8 (donor); 10 uM agonist (carbachol for M2R, isoproterenol for β2AR, dopamine for D1R, quinpirole for D2R), 5 uM coelenterazine h; net BRET (with minus without agonist), average at 10 and 15 min and time course.
Details: not given
The molecule “Venus-tagged arrestin-3 ΔG65 (on the A87V background) (from UniProt P32120 1-362) (natural protein)” came in with a reduction of binding (net BRET) against A87V of 80%.

The next assay deals with T4, HA-tagged dopamine D2 receptor, P14416.
T4 chain: T3 chain
Nature of the assay: co-immunoprecipitation (quantified immunoblot). The conditions noted are these: chain shown with the change; HEK293 arrestin 2/3 KO cells; 10 μM quinpirole; non-specific binding (no HA-D2R) subtracted; parent: est. 8.4; read off a plot. On the technique in general: In western blotting, separated proteins are transferred to a membrane and probed.
As for B5, the response was 2.7.
